Measurements taken from patent US20040186044A1, “Modulation of myelination by interaction with P75 and TRK receptors” (priority 2002, published 2004).

Tests used:
[1] = test system: Schwann cell/neuronal cocultures; assay: Western blot of myelin proteins MAG and P0 in Schwann cell/DRG neuronal cocultures; format: cell-based, rat
Procedure: (§1) Dorsal Root Ganglia (DRG) Neuronal Schwann Cell Cocultures. Purified neuronal and Schwann cell cultures were prepared as previously described. Neuronal cultures were established from DRG neurons obtained from Sprague-Dawley rat embryos at 15 days gestation (Simonsen Laboratories, Gilroy, Calif.). DRG neurons were dissociated and plated onto collagen coated coverslips. Nonneuronal cells were eliminated by cycling (three 2-day cycles) with a fluorodeoxyuridine-containing medium (10 μM). NGF-dependent neurons were then maintained for 1 week in a medium consisting of 10% FBS in MEM and 100 ng/ml of NGF.
(§2) Schwann cells were isolated from the sciatic nerve of 4-day-old rat pups. Schwann cells were purified by using cytosine arabinoside and Thy-1.1 antibody mediated lysis of the fibroblasts (the anti-Thy-1.1 antibody was obtained from the American Type Culture Collection). Approximately 100,000 purified Schwann cells were than seeded onto purified neuronal cultures of ˜50,000 cells and allowed to proliferate and ensheath the axons (˜1 week). Myelination was then initiated with the addition of ascorbic acid (50 μg/ml), which was replenished with feeding every 2 to 3 days.
(§3) Western Blot Analysis. Samples from Schwann cell/neuronal co-cultures and sciatic nerves were prepared for Western blot analysis by homogenization in radioimmunoprecipitation assay (RIPA) buffer [PBS with 1% Nonidet P-40/0.5% deoxycholate/0.1% SDS/1 mM PMSF/Complete protease inhibitor tablets (Roche Molecular Biochemicals)] followed by high-speed centrifugation. Protein determination was made by using the Bicinchoninic Acid Kit (Sigma). Equivalent amounts of total protein extract from each sample were mixed with sample buffer, boiled, and loaded onto SDS polyacrylamide gels. Electrophoretic separation of the extracts was typically performed on 10-15% (depending on the molecular weight of the protein of interest) discontinuous acrylamide gels under denaturing conditions. The proteins were then transferred to pure nitrocellulose membranes (PROTRAN BA85, Schleicher and Schuell, 0.45 μm) and probed with specific antibodies. The mouse monoclonal anti-myelin-associated glycoprotein (MAG; Chemicon) was used at a concentration of 2.5 μg/ml (under nonreducing conditions); the mouse monoclonal anti-P0 antibody was used at a dilution of 1:5,000. All primary antibodies were incubated overnight at 4° C. Secondary HRP-conjugated anti-mouse IgG and anti-rabbit IgG antibodies were used at a dilution of 1:10,000 (Jackson ImmunoResearch). The blots were developed by chemiluminescence (Renaissance, DuPont_NEN) as described by the manufacturer. All of the blots were imaged and quantitated in the linear range for the corresponding antibodies. Protein concentrations of the samples were serial diluted until linear intensities were achieved. In many instances, the blots were stripped and reprobed with different antibodies.

[2] = test system: Schwann cell/neuronal cocultures; assay: P0 immunocytochemistry of mature myelin internodes in Schwann cell/neuronal cocultures; format: cell-based; details: for Schwann cell proliferation and morphology of ensheathed Schwann cells / cell death (neurofilament and nuclear staining): 100 ng/ml; for formation of mature myelin internodes (P0 immunostaining): BDNF, TrkB-Fc, TrkC-Fc 1 μg/ml, added at day of induction, 6 days after induction
Procedure: as §1, §2
Immunocytochemistry. Cocultures were fixed in 4% paraformaldehyde before dehydration through a graded ethanol series (50, 70, 90, and 100%). Samples were then permeabilized and blocked by incubation with 20% normal goat serum or 10% FCS. Primary antibodies included the mouse monoclonal anti-P0 antibody used at a dilution of 1:500 and the mouse monoclonal anti-MAG at a concentration of 2.5 μg/ml. The Texas red-conjugated anti-mouse IgG (Jackson ImmunoResearch) was used as a secondary antibody at a dilution of 1:1,000. Cellular nuclei were examined by using the Hoechst dye. Samples were mounted and fluorescence microscopy was accomplished by using a Nikon Microphot FXA.

SC/DRG cocultures = assay: TUNEL analysis of neuronal or glial survival in SC/DRG cocultures; format: cell-based, rat; details: added at the start of myelination
sciatic nerve [3] = assay: Western blot of MAG and P0 in developing sciatic nerve after s.c. injection of newborn mice; format: in vivo, mouse; details: for P0 and MAG protein expression, wild-type mice: newborn wild-type mice, Western-blot 4 days later
Procedure: as §3
(§4) Injections in Mouse Sciatic Nerve. BDNF, NT3, TrkB-Fc, and TrkC-Fc (3 μg each; Regeneron Pharmaceuticals) were injected s.c. starting from the caudal portion of the greater trochanter region and running parallel along the sciatic nerve (total volume of 5 μl). T he contralateral leg served as a control for each factor with the injection of saline. Injections were performed on 1-day-old mouse pups (C57BU6, Simonsen Laboratories) and the sciatic nerves were extracted and processed 48 h later. A second set of mice were reinjected with the factors and then examined after an additional 48 h (4 days of total treatment). Nerves used for electron microscopy were trimmed and incisions were made at the flexure of the greater trochanter. In total, 11 animals were analyzed after injection with BDNF, 12 with TrkB-Fc, 11 with NT3, and 7 with TrkC-Fc.

[4] = test system: sciatic nerve of p75NTR -/- mice; assay: Western blot of P0 and MAG in sciatic nerve of injected newborn p75NTR -/- mice; format: in vivo, mouse; details: Western-blot 4 days later
Procedure: (§5) (A-B) Newborn wild-type and p75^NTR −/− mice were injected with BDNF (wild-type, n=10; p75^NTR −/−, n=25) and NT3 (wild-type, n=13; p75^NTR −/−, n=14) or the scavengers TrkB-Fc (wild-type, n=13; p75^NTR −/−, n=20) and TrkC-Fc (wild-type, n=14; p75^NTR −/−, n=20) and the levels of (A) P0 and (B) MAG were analyzed by Western-blot 4 days later. Asterisks: p<0.01. (C-D) Wild-type and p75^NTR −/− SC/DRG cocultures were established from E13 mouse embryos obtained through crossing heterozygous (p75^NTR +/−) mice. Levels of (C) P0 and (D) MAG were determined by Western-blot six days after initiation of myelination in the presence of the different factors. Asterisks: p<0.01.

[5] = test system: wild-type SC/DRG cocultures; assay: Western blot of P0 and MAG in wild-type mouse SC/DRG cocultures; format: cell-based; details: six days after initiation of myelination
Procedure: as §5

[6] = test system: p75NTR -/- SC/DRG cocultures; assay: Western blot of P0 and MAG in p75NTR -/- mouse SC/DRG cocultures; format: cell-based; details: six days after initiation of myelination
Procedure: as §5

sciatic nerve [7] = assay: Electron microscopy of myelin ultrastructure in developing sciatic nerve of injected newborn mice; format: in vivo, mouse
Procedure: as §4
Electron Microscopy. Electron microscopy was performed by the Electron Microscopy Facility in the Department of Microbiology and Immunology (Stanford University, CA). Processing of the sciatic nerve was accomplished by fixation in 2% glutaraldehyde and 4% paraformaldehyde solution in PBS, followed by post-fixation in 1% OSO4. […] Finally, samples were infiltrated and embedded in pure epoxy.

[8] = 100 ng/ml added at day of induction, analysed after 6 days of induction
[9] = 3 μg at P1, reinjected 2 days later, nerves at P5, vs contralateral saline
[10] = 3 μg at P1, reinjected, nerves at P5

Molecule: COC(=O)[C@@]1(O)C[C@H]2O[C@]1(C)n1c3ccccc3c3c4c(c5c6ccccc6n2c5c31)C(=O)NC4 [K252a, K-252a, reference compound]
- accumulation of myelin proteins MAG and P0 ([1]; rat SC/DRG cocultures treated for 6 days from induction): increase in myelin protein accumulation
- formation of mature myelin internodes (P0 immunocytochemistry) ([2]; rat SC/DRG cocultures, Example 2): increase
- neuronal or glial survival (SC/DRG cocultures): does not affect neuronal or glial survival

Molecule: NT3: neurotrophin-3, gift from Regeneron Pharmaceuticals
- diminished expression of MAG [1, 8]: ~2 fold
- diminished expression of P0 [1, 8]: ~3 fold
- Schwann cell proliferation and morphology of ensheathed Schwann cells [2]: Neither BDNF nor NT3 caused any changes
- cell death (neurofilament and nuclear staining) [2]: no sign of increased cell death
- formation of mature myelin internodes (P0 immunostaining) ([2]; NT3 100 ng/ml): inhibited the appearance of myelin internodes
- thickness and length of detected internodes vs control cultures ([2]; NT3 100 ng/ml, TrkB-Fc 1 μg/ml): significantly thinner and shorter in length
- inhibition of MAG and P0 expression in the sciatic nerves (sciatic nerve [3]; 3 μg s.c., mice treated for 2 days, vs contralateral leg): ~25%
- P0 and MAG protein expression, wild-type mice (sciatic nerve [3]): inhibited
- P0 and MAG protein expression, p75NTR -/- mice [4]: inhibited
- myelin protein expression (P0, MAG), wild-type cocultures [5]: inhibited
- myelin protein expression (P0, MAG), p75NTR -/- cocultures [6]: inhibited

B1: BDNF: neurotrophin brain-derived neurotrophic factor, gift from Regeneron Pharmaceuticals (protein, UniProt P23560 19-247, looked up)
Neurotrophic factor BDNF …: APMKEANIRGQGGLAYPGVRTHGTLESVNGPKAGSRGLTSLADTFEHVIEELLDEDQKVRPNEENNKDADLYTSRVMLSSQVPLEPPLLFLLEEYKNYLDAANMSMRVRRHSDPARRGELSVCDSISEWVTAADKKTAVDMSGGTVTVLEKVPVSKGQLKQYFYETKCNPMGYTKEGCRGIDKRHWNSQCRTTQSYVRALTMDSKKRIGWRFIRIDTSCVCTLTIKRGR
- enhancement of MAG expression over control cultures [1, 8]: ~2 fold
- enhancement of P0 expression over control cultures [1, 8]: ~1.5 fold
- modulation of myelination (P0 and MAG) in the presence of K252a ([1]; in combination with K252a, 6 days): still able to modulate myelination
- Schwann cell proliferation and morphology of ensheathed Schwann cells [2]: Neither BDNF nor NT3 caused any changes
- cell death (neurofilament and nuclear staining) [2]: no sign of increased cell death
- formation of mature myelin internodes (P0 immunostaining) ([2]; NT3 100 ng/ml): produced an enhancement in myelin formation
- enhancement of MAG and P0 expression in the sciatic nerves (sciatic nerve [3]; 3 μg s.c., 1-day-old mouse pups, vs saline-injected contralateral leg): more than 50%
- P0 and MAG protein expression, wild-type mice (sciatic nerve [3]): enhanced P0 and MAG protein expression
- P0 and MAG expression in sciatic nerve (sciatic nerve [3]; s.c. injection of newborn mice, nerves isolated four days later (Example 2)): enhanced P0 and MAG expression
- decrease in ensheathed axons (sciatic nerve [7]; [9]): 2 fold
- number of myelinated axons (sciatic nerve [7]; [9]): significant correlative increase in the number of myelinated axons
- more wraps of myelin on average than control nerves (sciatic nerve [7]; [10]): 25%
- percentage of myelinated axons with more than 25 wraps of myelin (sciatic nerve [7]; [10]): more than 30%
- thickness of the myelin sheath (number of lamellae distribution) vs contralateral control nerve (sciatic nerve [7]; newborn mice, sciatic nerve): significantly thicker
- total number of axons vs contralateral control nerves (sciatic nerve [7]; ultrastructural studies): did not reveal any differences in the total number of axons
- P0 and MAG protein expression, p75NTR -/- mice [4]: neither BDNF nor TrkB-Fc were able to modulate myelin protein expression
- myelin protein expression (P0, MAG), wild-type cocultures [5]: enhanced
- myelin protein expression (P0, MAG), p75NTR -/- cocultures [6]: neither BDNF nor TrkB-Fc had any effect
